# Assay results as given in patent publication US20090053196.
# Tested on: FLAG-tagged UNC-45 (UNC-45^FLAG)
substance,measurement,value
^mycCHN-1^ΔU-box,"in vitro ubiquitylation of UNC-45, Western blot","a CHN-1 version lacking the U-box, CHN-1^ΔU-box, was not able to ubiquitylate UNC-45"
